Experimental data from paper PMC11879619.
Where no end group is shown, it is not given here.

Tests used:
[1] = target: He-PDFR-A, long splice variant of the pigment-dispersing factor receptor of Hypsibius exemplaris (Hypsibius exemplaris)
[2] = target: He-PDFR-B, short splice variant of the pigment-dispersing factor receptor of Hypsibius exemplaris (Hypsibius exemplaris)

Binder: NSEILNTIIGLPNKLRQR-NH2 [He-PDF-2, pigment-dispersing factor 2 of Hypsibius exemplaris (synthetic mature peptide)]
- EC50 of the cAMP response (BRET ratio change of the Epac-L sensor) of HEK293T cells transfected with He-pdfr-A, synthetic peptide at 10^-11 to 10^-5 M [1]: 34 nM
- EC50 of the cAMP response (BRET ratio change of the Epac-L sensor) of HEK293T cells transfected with He-pdfr-B, synthetic peptide at 10^-11 to 10^-5 M [2]: 11 nM

Binder: NSEILNTLIGLPNKLKQR-NH2 [He-PDF-3, pigment-dispersing factor 3 of Hypsibius exemplaris (synthetic mature peptide)]
- EC50 of the cAMP response (BRET ratio change of the Epac-L sensor) of HEK293T cells transfected with He-pdfr-A, synthetic peptide at 10^-11 to 10^-5 M [1]: 18 nM
- EC50 of the cAMP response (BRET ratio change of the Epac-L sensor) of HEK293T cells transfected with He-pdfr-B, synthetic peptide at 10^-11 to 10^-5 M [2]: 1.6 nM

Binder: NAEVLNSLIGLPRLLKDK-NH2 [He-PDF-1, pigment-dispersing factor 1 of Hypsibius exemplaris (synthetic mature peptide)]
- EC50 of the cAMP response (BRET ratio change of the Epac-L sensor) of HEK293T cells transfected with He-pdfr-A, synthetic peptide at 10^-11 to 10^-5 M [1]: 56 nM
- EC50 of the cAMP response (BRET ratio change of the Epac-L sensor) of HEK293T cells transfected with He-pdfr-B, synthetic peptide at 10^-11 to 10^-5 M [2]: 21 nM
